Entries after “also recorded” stand apart in the source; their conditions may differ. Counter-ions that a name gives are not always drawn.
Columns and labels:
[1] = Cofactor-dependent ^55Fe binding to NGAL (10 kDa filter retention); conditions: for inhibition of ^55Fe capture by apo-NGAL+urine: competitor: 1000-fold unlabeled iron citrate or 50-fold iron-saturated enterochelin; for retention of ^55Fe: washed on 10 kDa filter
Procedure: The urine fraction was obtained by passing fresh urine sequentially through 10 kDa and 3 kDa membranes (YM-10 and YM-3, Amicon). The mixture was then washed three times on 10 kDa membrane (YM-10, Amicon). Iron-free enterochelin-loaded NGAL (rather than NGAL without siderophore) served as a positive control for iron capture. Ferric citrate (1 mM) or iron-loaded enterochelin (Sid:Fe, 50 μM) were used as competitors of ^55Fe binding.

[2] = test system: mouse model of ATN or ischemia/reperfusion injury; assay: Mouse model of ATN (30 min clamp, contralateral nephrectomy): plasma creatinine; type: in vivo, mice; conditions: for protection against ATN (creatinine, FIG. 17A): mice, 30 minutes of ischemia, 10 μg protein or single dose, 15 min prior to ischemia
Procedure: Male C57BL/6 mice (20-25 gr; Charles River) were anesthetized with intraperitoneal pentobarbital (50 mg/kg) and placed on a heating pad under a warming light to maintain 37© core body temperature. Kidneys were exposed through an abdominal section and the right kidney was either removed or its vascular pedicle and ureter ligated. The vascular pedicle of the left kidney or both kidneys was clamped by a microaneurysm clip (Kent Scientific) for 30 minutes after right nephrectomy. This period of ischemia generated reproducible renal injury but minimized mortality. During the procedure, PBS (0.5 ml) was used to dampen the peritoneum. The animal was closed with 5-0 Nylon. Saline, NGAL, retinol-loaded retinol binding protein (RBP), enterochelin, or desferroxamine mesylate (DFO) were injected into the peritoneum or subcutaneously 15 min. prior to ischemia or 1-2 hr after reperfusion.
After 6 or 24 hr of reperfusion, heparinized plasma, urine and kidney samples were obtained to measure NGAL (polyclonal 1:500), Heme oxygenase-1 (Stressgen, 1:2000), E-cadherin (BD Transduction Labs, 1:2000), N-cadherin (BD Transduction Labs, 1:3000) and GAPDH (Chemicon International, 1:3000) using immunoblots. Plasma was also used for creatinine and blood urea nitrogen colorimetric assays. Sagittal sections of the kidney were fixed in 4% formalin, or were snap frozen for mRNA and protein analysis. Paraffin-embedded sections (5 μm) were stained with hematoxylin-eosin or by an in situ kit (Fluorescein-TUNEL, Roche) for apoptotic nuclei or for total nuclei (Toprol, Molecular Probes). For cell proliferation analysis, BrdU was injected into the peritoneum 1 hour before sacrifice, and cryostat sections were stained with anti-BrdU (Roche) according to the manufacturer.

[3] = Distribution and radioautography of ^55Fe after ^55Fe:Sid:NGAL injection; type: in vivo, mice; conditions: for Silver Grains (% Total): kidney radioautography; for ^55Fe recovered: one hour after 10 μg intraperitoneal
Text: Recombinant human and mouse GST-NGAL were expressed in BL21 or XL1-Blue strains of E. coli (Stratagene) with additional ferric sulfate (50 Micro Molar, Sigma-Aldrich Co.). NGAL was isolated using Glutathione Sepharose 4B beads (Amersham Biosciences), eluted by thrombin cleavage (Sigma-Aldrich Co.; St. Louis, Mo.) and then further purified by gel filtration (Superdex75, SMART system, Amersham Biosciences) and examined by Coomassie gels (Biorad). BL-21 derived NGAL was loaded with iron free or iron saturated enterochelin, a siderophore (EMC Microcollections) using a 5 fold molar excess. Unbound siderophore (0.7 KD) was removed by washing (Microcon YM-10) with PBS. To produce ^55Fe or gallium (Ga) loaded NGAL we incubated the iron-free enterochelin NGAL complex with equimolar ^55Fe (18mCi) or Ga in NaCl (150 mM) Hepes (20 mM; pH 7.4) and the complex was washed 3 times (10K filter). Iodobeads (Pierce) were used to label NGAL with ^125I and unincorporated ^125I was removed by gel filtration (PD-10 column) followed by extensive dialysis (7 kDa cut off membrane, Pierce) against PBS. Alexa-568 and fluorescein isothiocyanate (Molecular Probes) was coupled to NGAL, according to the manufacturer, and then extensively dialyzed. Protein concentration was determined by Coomassie gels in comparison with bovine serum albumin standard.
To detect delivery of NGAL to the kidney rNGAL (10 or 100 μg), Alexa 568-NGAL (100 μg), ^125I-NGAL ([…], 2×10^6 cpm), or ^55Fe loaded enterochelin-NGAL (10 μg, 1×10^6 cpm) was injected into the peritoneum and blood, urine, kidney and liver samples were obtained. NGAL was detected by immunoblot. Alexa-568 NGAL was detected by confocal microscopy (LSM Meta Detector) and NGAL mediated iron trafficking was detected by scintillation counter and by light microscopic radioautography of Epon embedded kidneys. Slides were exposed to emulsion (Polyscience) for 1 week and then developed with Microdol and counterstained with Toluidine blue. To detect lysosomes in the proximal tubule, mice were injected with Fluorescein Dextran (46 kD; 0.5 mg; Sigma) 24 hours before Alexa 568 NGAL injections. LAMP1 (Santa Cruz) was detected in cryostat sections of 4% paraformaldehyde fixed kidneys.

## Ferric citrate [iron citrate, reference compound]
[1]
  inhibition of ^55Fe capture by apo-NGAL+urine: inhibited
[1]; listed as iron-citrate
  inhibition of ^55Fe capture by apo-NGAL+urine: blocked

## CC(=O)N(O)CCCCCNC(=O)CCC(=O)N(O)CCCCCNC(=O)CCC(=O)N(O)CCCCCN [DFO, desferrioxamine mesylate, reference compound]
[2]
  protection against ATN (creatinine, FIG. 17A): failed to protect against ATN; also recorded: ineffective

B1: holo-NGAL: NGAL cloned in XL-1Blue bacteria; contains enterochelin and is iron-loaded (protein, UniProt P11672 21-200, looked up)
Neutrophil …: QDSTQNLIPAPSLLTVPLQPDFRSDQFRGRWYVVGLAGNAVQKKTEGSFTMYSTIYELQENNSYNVTSILVRDQDQGCRYWIRTFVPSSRAGQFTLGNMHRYPQVQSYNVQVATTDYNQFAMVFFRKTSENKQYFKITLYGRTKELSPELKERFTRFAKSLGLKDDNIIFSVPTDQCIDN
modifications: enterochelin, iron-loaded
notes: NGAL cloned in XL-1Blue bacteria; contains enterochelin and is iron-loaded
[2]
  protection against ATN (creatinine, FIG. 17A): rescues renal function
[2]; listed as holo-Ngal
  protection against ATN (creatinine, FIG. 17A): protected the kidney

B2: apo-NGAL: NGAL cloned in BL-21 bacteria; does not contain enterochelin (siderophore free) (protein, UniProt P80188 21-198, looked up)
Neutrophil …: QDSTSDLIPAPPLSKVPLQQNFQDNQFQGKWYVVGLAGNAILREDKDPQKMYATIYELKEDKSYNVTSVLFRKKKCDYWIRTFVPGCQPGEFTLGNIKSYPGLTSYLVRVVSTNYNQHAMVFFKKVSQNREYFKITLYGRTKELTSELKENFIRFSKSLGLPENHIVFPVPIDQCIDG
modifications: siderophore-free
[2]
  protection against ATN (creatinine, FIG. 17A): minimally active
[2]; listed as apo-Ngal
  protection against ATN (creatinine, FIG. 17A): reduced level of protection
[1]; in buffer
  retention of ^55Fe: failed to trap ^55Fe and not
[1]; with mouse urine fraction (<3,000 Da)
  retention of ^55Fe: retains ^55Fe

B3: ^55Fe:Sid:NGAL: iron-free enterochelin-NGAL incubated with ^55Fe at 1:1 stoichiometry (protein, UniProt P80188 21-198, looked up)
Neutrophil …: QDSTSDLIPAPPLSKVPLQQNFQDNQFQGKWYVVGLAGNAILREDKDPQKMYATIYELKEDKSYNVTSVLFRKKKCDYWIRTFVPGCQPGEFTLGNIKSYPGLTSYLVRVVSTNYNQHAMVFFKKVSQNREYFKITLYGRTKELTSELKENFIRFSKSLGLPENHIVFPVPIDQCIDG
modifications: enterochelin loaded with 55Fe
notes: iron-free enterochelin-NGAL incubated with ^55Fe at 1:1 stoichiometry
[3]; Apical MB
  Relative SA (% grains/% point count): 2.21
  Silver Grains (% Total): 12.91 % Total
[3]; Basal MB
  Relative SA (% grains/% point count): 0.59
  Silver Grains (% Total): 3.81 % Total
[3]; Cytosol
  Relative SA (% grains/% point count): 1
  Silver Grains (% Total): 48.98 % Total
[3]; Glomerular Tuft
  Relative SA (% grains/% point count): 0.11
  Silver Grains (% Total): 0.13 % Total
[3]; Interstitium
  Relative SA (% grains/% point count): 0.3
  Silver Grains (% Total): 3.71 % Total
[3]; Lumen
  Relative SA (% grains/% point count): 1.43
  Silver Grains (% Total): 26.46 % Total
[3]; Nucleus
  Relative SA (% grains/% point count): 0.56
  Silver Grains (% Total): 4.02 % Total
[3]; kidney
  ^55Fe recovered: 55%
[3]; liver
  ^55Fe recovered: 2.4%
[3]; plasma
  ^55Fe recovered: 4.3%
[3]; spleen
  ^55Fe recovered: 0.2%
[3]; urine
  ^55Fe recovered: 0.6%

B4: apo-NGAL:Sid:Ga: gallium-loaded enterochelin-NGAL complex (protein, UniProt P80188 21-198, looked up)
Neutrophil …: QDSTSDLIPAPPLSKVPLQQNFQDNQFQGKWYVVGLAGNAILREDKDPQKMYATIYELKEDKSYNVTSVLFRKKKCDYWIRTFVPGCQPGEFTLGNIKSYPGLTSYLVRVVSTNYNQHAMVFFKKVSQNREYFKITLYGRTKELTSELKENFIRFSKSLGLPENHIVFPVPIDQCIDG
modifications: enterochelin loaded with gallium
notes: gallium-loaded enterochelin-NGAL complex
[2]; gallium complex 15 minutes prior to ischemia
  creatinine: 3.17±0.1
[2]
  protection against ATN (creatinine, FIG. 17A): ineffective
[2]; listed as apo-Ngal:Sid:Ga
  protection against ATN (creatinine, FIG. 17A): not protected

Source: patent US8247376B2, “NGAL for reduction and amelioration of ischemic and nephrotoxic injuries” (The Trustees of Columbia University, priority 2004, dated 2012)
